In paper PMC9719539 (2022):
Like-named read-outs stand apart in the source and are kept apart here. Positions of bridges follow the written chain, without caps; N, C: chain ends. Non-standard residues stand in square brackets, D forms with d. No end group written: not given here.

B1: integrin αVβ3 on intact cells (receptor)
chain 1: FNLDVDSPAEYSGPEGSYFGFAVDFFVPSASSRMFLLVGAPKANTTQPGIVEGGQVLKCDWSSTRRCQPIEFDATGNRDYAKDDPLEFKSHQWFGASVRSKQDKILACAPLYHWRTEMKQEREPVGTCFLQDGTKTVEYAPCRSQDIDADGQGFCQGGFSIDFTKADRVLLGGPGSFYWQGQLISDQVAEIVSKYDPNVYSIKYNNQLATRTAQAIFDDSYLGYSVAVGDFNGDGIDDFVSGVPRAARTLGMVYIYDGKNMSSLYNFTGEQMAAYFGFSVAATDINGDDYADVFIGAPLFMDRGSDGKLQEVGQVSVSLQRASGDFQTTKLNGFEVFARFGSAIAPLGDLDQDGFNDIAIAAPYGGEDKKGIVYIFNGRSTGLNAVPSQILEGQWAARSMPPSFGYSMKGATDIDKNGYPDLIVGAFGVDRAILYRARPVITVNAGLEVYPSILNQDNKTCSLPGTALKVSCFNVRFCLKADGKGVLPRKLNFQVELLLDKLKQKGAIRRALFLYSRSPSHSKNMTISRGGLMQCEELIAYLRDESEFRDKLTPITIFMEYRLDYRTAADTTGLQPILNQFTPANISRQAHILLDCGEDNVCKPKLEVSVDSDQKKIYIGDDNPLTLIVKAQNQGEGAYEAELIVSIPLQADFIGVVRNNEALARLSCAFKTENQTRQVVCDLGNPMKAGTQLLAGLRFSVHQQSEMDTSVKFDLQIQSSNLFDKVSPVVSHKVDLAVLAAVEIRGVSSPDHVFLPIPNWEHKENPETEEDVGPVVQHIYELRNNGPSSFSKAMLHLQWPYKYNNNTLLYILHYDIDGPMNCTSDMEINPLRIKISSLQTTEKNDTVAGQGERDHLITKRDLALSEGDIHTLGCGVAQCLKIVCQVGRLDRGKSAILYVKSLLWTETFMNKENQNHSYSLKSSASFNVIEFPYKNLPIEDITNSTLVTTNVTWGIQPAPMPVPVWVIILAVLAGLLLLAVLVFVMYRMGFFKRVRPPQEEQEREQLQPHENGEGNSET
chain 2: GPNICTTRGVSSCQQCLAVSPMCAWCSDEALPLGSPRCDLKENLLKDNCAPESIEFPVSEARVLEDRPLSDKGSGDSSQVTQVSPQRIALRLRPDDSKNFSIQVRQVEDYPVDIYYLMDLSYSMKDDLWSIQNLGTKLATQMRKLTSNLRIGFGAFVDKPVSPYMYISPPEALENPCYDMKTTCLPMFGYKHVLTLTDQVTRFNEEVKKQSVSRNRDAPEGGFDAIMQATVCDEKIGWRNDASHLLVFTTDAKTHIALDGRLAGIVQPNDGQCHVGSDNHYSASTTMDYPSLGLMTEKLSQKNINLIFAVTENVVNLYQNYSELIPGTTVGVLSMDSSNVLQLIVDAYGKIRSKVELEVRDLPEELSLSFNATCLNNEVIPGLKSCMGLKIGDTVSFSIEAKVRGCPQEKEKSFTIKPVGFKDSLIVQVTFDCDCACQAQAEPNSHRCNNGNGTFECGVCRCGPGWLGSQCECSEEDYRPSQQDECSPREGQPVCSQRGECLCGQCVCHSSDFGKITGKYCECDDFSCVRYKGEMCSGHGQCSCGDCLCDSDWTGYYCNCTTRTDTCMSSNGLLCSGRGKCECGSCVCIQPGSYGDTCEKCPTCPDACTFKKECVECKKFDRGALHDENTCNRYCRDEIESVKELKDTGKDAVNCTYKNEDDCVVRFQYYEDSSGKSILYVVEEPECPKGPDILVVLLSVMGAILLIGLAALLIWKLLITIHDRKEFAKFEEERARAKWDTANNPLYKEATSTFTNITYRGT

Assays:
IPI-αVβ5.9 [1] = test: FACS; L15 medium
IPI-αVβ3.13 [2] = test: FACS; L15 medium
IPI-αVβ5.9 [3] = test: FACS; L15 + 1 mM Mn2+
IPI-αVβ3.13 [4] = test: FACS; L15 + 1 mM Mn2+
[5] = target: T1, integrin α5β1 on intact cells (human, UniProt P08648 42-1049; P05556 21-798); test: FACS
[6] = target: B1; test: FACS
[7] = target: integrin αVβ1 on intact cells (human, UniProt P06756 31-1048; P05556 21-798); test: FACS
[8] = target: T1, integrin α5β1 on intact cells; test: FACS; remark: listed apart in the source

T1 sequence (P08648 42-1049, chain 1 of 2): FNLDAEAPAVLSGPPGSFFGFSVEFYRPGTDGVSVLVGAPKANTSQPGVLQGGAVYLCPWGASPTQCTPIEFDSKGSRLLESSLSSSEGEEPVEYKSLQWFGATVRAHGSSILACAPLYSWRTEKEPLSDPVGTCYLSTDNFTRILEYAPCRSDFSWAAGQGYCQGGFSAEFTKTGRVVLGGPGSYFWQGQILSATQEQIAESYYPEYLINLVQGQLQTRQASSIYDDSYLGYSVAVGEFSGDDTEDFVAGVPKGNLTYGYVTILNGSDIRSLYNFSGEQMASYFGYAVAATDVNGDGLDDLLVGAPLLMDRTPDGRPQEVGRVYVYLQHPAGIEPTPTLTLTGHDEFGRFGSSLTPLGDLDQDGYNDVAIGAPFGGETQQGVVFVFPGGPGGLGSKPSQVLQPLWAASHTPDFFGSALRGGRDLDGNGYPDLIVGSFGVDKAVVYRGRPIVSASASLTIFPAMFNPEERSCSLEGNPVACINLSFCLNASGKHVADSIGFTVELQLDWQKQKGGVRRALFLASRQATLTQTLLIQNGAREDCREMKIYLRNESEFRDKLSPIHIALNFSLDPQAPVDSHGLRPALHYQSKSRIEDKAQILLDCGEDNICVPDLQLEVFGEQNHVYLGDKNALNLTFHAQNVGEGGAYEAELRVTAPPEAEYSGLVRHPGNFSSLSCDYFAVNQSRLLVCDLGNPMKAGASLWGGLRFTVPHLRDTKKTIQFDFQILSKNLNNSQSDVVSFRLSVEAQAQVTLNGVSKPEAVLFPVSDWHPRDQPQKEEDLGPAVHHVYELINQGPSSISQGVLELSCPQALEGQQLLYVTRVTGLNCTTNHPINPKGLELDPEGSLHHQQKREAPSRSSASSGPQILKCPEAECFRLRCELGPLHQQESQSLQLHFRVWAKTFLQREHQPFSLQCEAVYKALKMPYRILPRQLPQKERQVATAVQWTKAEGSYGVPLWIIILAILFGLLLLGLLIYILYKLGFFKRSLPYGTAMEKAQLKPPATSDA
T1 sequence (P05556 21-798, chain 2 of 2): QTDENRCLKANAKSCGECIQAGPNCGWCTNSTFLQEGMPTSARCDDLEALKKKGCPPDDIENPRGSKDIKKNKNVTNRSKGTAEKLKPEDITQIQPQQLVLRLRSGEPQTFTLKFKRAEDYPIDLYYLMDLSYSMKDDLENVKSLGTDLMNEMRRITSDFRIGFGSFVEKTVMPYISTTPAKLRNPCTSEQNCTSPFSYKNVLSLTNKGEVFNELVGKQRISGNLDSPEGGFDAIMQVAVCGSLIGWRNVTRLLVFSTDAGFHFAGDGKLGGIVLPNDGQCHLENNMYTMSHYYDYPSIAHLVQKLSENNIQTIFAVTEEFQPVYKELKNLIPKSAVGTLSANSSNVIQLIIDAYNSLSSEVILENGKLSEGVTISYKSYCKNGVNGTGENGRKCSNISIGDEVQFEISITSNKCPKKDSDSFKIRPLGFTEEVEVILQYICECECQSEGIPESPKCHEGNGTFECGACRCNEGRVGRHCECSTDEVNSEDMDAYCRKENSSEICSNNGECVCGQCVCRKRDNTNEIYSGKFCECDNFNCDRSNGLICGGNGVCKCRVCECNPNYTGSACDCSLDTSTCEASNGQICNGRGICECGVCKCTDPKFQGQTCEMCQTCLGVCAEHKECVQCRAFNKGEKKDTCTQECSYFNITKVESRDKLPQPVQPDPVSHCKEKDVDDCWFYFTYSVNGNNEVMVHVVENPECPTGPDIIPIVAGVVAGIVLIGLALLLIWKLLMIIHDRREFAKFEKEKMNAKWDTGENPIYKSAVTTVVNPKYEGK
Sequence of integrin αVβ1 on intact cells (P05556 21-798, one chain of several): as the sequence (P05556 21-798, chain 2 of 2) above

With B1 the Kd (IPI-αVβ5.9 [1]) was 10000 nM, the Kd (IPI-αVβ3.13 [2]) was 56 nM and the Kd (IPI-αVβ5.9 [3]) was 16000 nM. For the same binder, the Kd (IPI-αVβ3.13 [4]) was 23 nM.

B2: integrin αVβ5 on intact cells (receptor)
chain 1: FNLDVDSPAEYSGPEGSYFGFAVDFFVPSASSRMFLLVGAPKANTTQPGIVEGGQVLKCDWSSTRRCQPIEFDATGNRDYAKDDPLEFKSHQWFGASVRSKQDKILACAPLYHWRTEMKQEREPVGTCFLQDGTKTVEYAPCRSQDIDADGQGFCQGGFSIDFTKADRVLLGGPGSFYWQGQLISDQVAEIVSKYDPNVYSIKYNNQLATRTAQAIFDDSYLGYSVAVGDFNGDGIDDFVSGVPRAARTLGMVYIYDGKNMSSLYNFTGEQMAAYFGFSVAATDINGDDYADVFIGAPLFMDRGSDGKLQEVGQVSVSLQRASGDFQTTKLNGFEVFARFGSAIAPLGDLDQDGFNDIAIAAPYGGEDKKGIVYIFNGRSTGLNAVPSQILEGQWAARSMPPSFGYSMKGATDIDKNGYPDLIVGAFGVDRAILYRARPVITVNAGLEVYPSILNQDNKTCSLPGTALKVSCFNVRFCLKADGKGVLPRKLNFQVELLLDKLKQKGAIRRALFLYSRSPSHSKNMTISRGGLMQCEELIAYLRDESEFRDKLTPITIFMEYRLDYRTAADTTGLQPILNQFTPANISRQAHILLDCGEDNVCKPKLEVSVDSDQKKIYIGDDNPLTLIVKAQNQGEGAYEAELIVSIPLQADFIGVVRNNEALARLSCAFKTENQTRQVVCDLGNPMKAGTQLLAGLRFSVHQQSEMDTSVKFDLQIQSSNLFDKVSPVVSHKVDLAVLAAVEIRGVSSPDHVFLPIPNWEHKENPETEEDVGPVVQHIYELRNNGPSSFSKAMLHLQWPYKYNNNTLLYILHYDIDGPMNCTSDMEINPLRIKISSLQTTEKNDTVAGQGERDHLITKRDLALSEGDIHTLGCGVAQCLKIVCQVGRLDRGKSAILYVKSLLWTETFMNKENQNHSYSLKSSASFNVIEFPYKNLPIEDITNSTLVTTNVTWGIQPAPMPVPVWVIILAVLAGLLLLAVLVFVMYRMGFFKRVRPPQEEQEREQLQPHENGEGNSET
chain 2: GLNICTSGSATSCEECLLIHPKCAWCSKEDFGSPRSITSRCDLRANLVKNGCGGEIESPASSFHVLRSLPLSSKGSGSAGWDVIQMTPQEIAVNLRPGDKTTFQLQVRQVEDYPVDLYYLMDLSLSMKDDLDNIRSLGTKLAEEMRKLTSNFRLGFGSFVDKDISPFSYTAPRYQTNPCIGYKLFPNCVPSFGFRHLLPLTDRVDSFNEEVRKQRVSRNRDAPEGGFDAVLQAAVCKEKIGWRKDALHLLVFTTDDVPHIALDGKLGGLVQPHDGQCHLNEANEYTASNQMDYPSLALLGEKLAENNINLIFAVTKNHYMLYKNFTALIPGTTVEILDGDSKNIIQLIINAYNSIRSKVELSVWDQPEDLNLFFTATCQDGVSYPGQRKCEGLKIGDTASFEVSLEARSCPSRHTEHVFALRPVGFRDSLEVGVTYNCTCGCSVGLEPNSARCNGSGTYVCGLCECSPGYLGTRCECQDGENQSVYQNLCREAEGKPLCSGRGDCSCNQCSCFESEFGKIYGPFCECDNFSCARNKGVLCSGHGECHCGECKCHAGYIGDNCNCSTDISTCRGRDGQICSERGHCLCGQCQCTEPGAFGEMCEKCPTCPDACSTKRDCVECLLLHSGKPDNQTCHSLCRDEVITWVDTIVKDDQEAVLCFYKTAKDCVMMFTYVELPSGKSNLTVLREPECGNTPNAMTILLAVVGSILLVGLALLAIWKLLVTIHDRREFAKFQSERSRARYEMASNPLYRKPISTHTVDFTFNKFNKSYNGTVD
B2 was tested, and the Kd (IPI-αVβ5.9 [1]) was 43 nM, the Kd (IPI-αVβ5.9 [3]) was 24 nM and the Kd (IPI-αVβ3.13 [4]) was 50000 nM.

With cyclo(RGD[dF]K) [cyclo[Arg-Gly-Asp-D-Phe-Lys] (cRGDfK)] the Kd [5] was 86 nM.

B3: Biogen-αVβ1.5 Fab (Fab, V domains shown)
VH: EVQLVESGGGVVQPGRSLRLSCAASGFTFKYYGMHWVRQAPGKGLEWVASIWYDGSNKKYADSVKGRFTISRDNSKNTLYLQMNSLRAEDTAVYYCARGGPTRGDGTRVYYYGMDVWGQGTTVTVSS
VL: EIVMTQSPATLSVSPGERATLSCRASQSVSSNLAWYQQKPGQAPRLLIYSASTRATGIPARFSGSGSGTEFTLTISSLQSEDFAVYYCQQYYHHPFTFGGGTKVEIK
Work on B3 yielded a Kd [6] of 78000 nM and a Kd [7] of 24 nM.

With ACRGDGWCGK (disulfide 2-8 (inferred)) [cyclic-ACRGDGWCGK] the Kd [8] was 3700 nM.
